This note sets out measurements from publication doi:10.1101/2022.07.11.499521.

For the assay, the target named is Vairimorpha necatrix 20S proteasome core particle (Vairimorpha necatrix (endogenous in spores)). In words: cryo-EM structure.

With “Vairimorpha necatrix 19S regulatory particle (complex)”, the percent of proteasome particles capped by RP stood at 12%.
